Data reported in patent US20090317849.

Key:
[1] = biological target: BSA (Bovine Serum Albumin) (UniProt P02769)
[2] = test system: recombinant Mep45-kinase matrix fusion protein (PKC matrix)
[3] = test system: T1, PKC (Protein Kinase C) matrix AAKIQASFRGHMARKK
T1 sequence: AAKIQASFRGHMARKK

[4] = test system: recombinant Mep45-kinase matrix fusion protein (cdc2-PK matrix)
[5] = test system: T2, cdc2-PK (cdc2 Protein Kinase) matrix PKTPKKAKKL
T2 sequence: PKTPKKAKKL

BSA (Bovine Serum Albumin), sequence (P02769 25-607): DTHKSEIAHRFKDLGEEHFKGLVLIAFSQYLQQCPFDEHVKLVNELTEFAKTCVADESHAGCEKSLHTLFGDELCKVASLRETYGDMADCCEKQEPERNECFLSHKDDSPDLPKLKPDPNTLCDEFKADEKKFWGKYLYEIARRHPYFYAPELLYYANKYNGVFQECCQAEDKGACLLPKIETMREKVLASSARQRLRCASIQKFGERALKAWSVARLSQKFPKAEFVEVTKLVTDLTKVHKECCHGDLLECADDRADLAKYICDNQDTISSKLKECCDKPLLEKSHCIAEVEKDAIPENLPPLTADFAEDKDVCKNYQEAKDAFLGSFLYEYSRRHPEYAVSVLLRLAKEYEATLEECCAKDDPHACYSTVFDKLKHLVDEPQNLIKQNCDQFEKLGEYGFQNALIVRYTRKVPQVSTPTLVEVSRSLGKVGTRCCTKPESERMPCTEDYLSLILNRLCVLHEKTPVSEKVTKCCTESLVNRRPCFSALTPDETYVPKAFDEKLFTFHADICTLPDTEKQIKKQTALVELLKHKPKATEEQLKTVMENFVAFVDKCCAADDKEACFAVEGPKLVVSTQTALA

Row | Substance | phosphorylation on chip with [gamma-32P]ATP, X-ray film or X-ray fluorescence spectrometer [1] | phosphorylation on chip with [gamma-32P]ATP, X-ray film or X-ray fluorescence spectrometer [2] | phosphorylation on chip with [gamma-32P]ATP, X-ray film or X-ray fluorescence spectrometer [3] | phosphorylation on chip with [gamma-32P]ATP, X-ray film or X-ray fluorescence spectrometer [4] | phosphorylation on chip with [gamma-32P]ATP, X-ray film or X-ray fluorescence spectrometer [5]
1 | PKC (Protein Kinase C) | no signal was detected on the spot of BSA (negative control) | clear signal was detected on the spot of ... Mep45 fusion matrix (FIG. 5B) | clear signal was detected on the spot of AAKIQASFRGHMARKK matrix (FIG. 5A) |  | 
2 | cdc2 protein kinase | no signal was detected on the spot of BSA (negative control) |  |  | clear signal was detected on the spot of ... Mep45 fusion matrix (FIG. 4B) | clear signal was detected on the spot of PKTPKKAKKL matrix (FIG. 4A)
